The results in this text go back to patent US6368790 (UNIVERSITY OF TENNESSEE RESEARCH, dated 2002).

The chains are these.
T1: Rb1 tumor suppressor protein (human, UniProt P06400 2-928)
T1 construct: Native protein from K562 lysate; also called pRb1; hypophosphorylated form of Rb1
T1 sequence (looked up): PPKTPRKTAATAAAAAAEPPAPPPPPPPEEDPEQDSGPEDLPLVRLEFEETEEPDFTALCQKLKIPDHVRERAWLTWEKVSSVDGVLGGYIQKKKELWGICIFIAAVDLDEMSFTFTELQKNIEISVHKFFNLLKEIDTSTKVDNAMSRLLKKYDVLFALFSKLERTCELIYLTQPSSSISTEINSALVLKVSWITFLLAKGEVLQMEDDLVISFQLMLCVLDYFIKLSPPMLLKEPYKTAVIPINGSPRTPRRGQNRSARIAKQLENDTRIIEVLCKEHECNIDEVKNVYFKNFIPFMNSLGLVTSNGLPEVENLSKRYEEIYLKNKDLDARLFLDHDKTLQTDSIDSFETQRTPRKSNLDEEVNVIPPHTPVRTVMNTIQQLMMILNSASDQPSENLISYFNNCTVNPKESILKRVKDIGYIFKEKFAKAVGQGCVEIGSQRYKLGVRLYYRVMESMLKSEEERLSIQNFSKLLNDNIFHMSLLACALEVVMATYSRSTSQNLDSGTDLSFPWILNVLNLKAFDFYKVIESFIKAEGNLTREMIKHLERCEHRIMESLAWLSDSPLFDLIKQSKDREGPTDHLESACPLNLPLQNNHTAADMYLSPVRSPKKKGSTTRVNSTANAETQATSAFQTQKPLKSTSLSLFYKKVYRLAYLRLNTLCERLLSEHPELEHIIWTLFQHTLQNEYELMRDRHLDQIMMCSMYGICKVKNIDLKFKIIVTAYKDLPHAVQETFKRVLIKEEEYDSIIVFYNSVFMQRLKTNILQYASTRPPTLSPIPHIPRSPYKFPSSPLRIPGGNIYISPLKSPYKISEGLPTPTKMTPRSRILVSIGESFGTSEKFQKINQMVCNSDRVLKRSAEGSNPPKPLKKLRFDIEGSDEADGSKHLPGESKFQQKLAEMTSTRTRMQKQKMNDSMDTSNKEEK

B1: GST-P2P (1-332) fusion protein (other, not shown: a dimerising Fc or GST)
chain: MMEVKDPNMKGAMLTNTGKYAIPTIDAEAYAIGKKEKPPFLPEEPSSSSEEDDPIPAELLCLICKDIMTDAVVIPCCGNSSCDECIRTTLLESDKHTCPTCHQNDVSPDALIANKFLRQAVNNFKNETGYTKRLRKQLPPFLFLVPPPRPLSQRNLQPRSRSPILRQQDPVVFRYTVSPTCSDTKTAGSCSDSGTLSRLPAPSISSLTSNQSSLAPPVSGNPSSAPAPVPDITATVSISVHSEKSDGPFRDSDNKLLPAAALTSEHSKGASSIAITALMEEKGVPGTSPWNSIFVGQSLLHGQLIPTTGPVRINAARPGGGRPGWEHSNKLG
B2: GST-P2P (494-688) fusion protein (other, not shown: a dimerising Fc or GST)
chain: AQHIHALTLSPSAAHTLDLLHDHPHPPEEAEARSAMIVHMPDLMDIAHARSRSPPYRRYRSRSRSPPEFRGQSPTKRNVPREEKEREYFNRYREVPPPYDIKAYYGRSVDFRDPFEKERYREWERKYREWYEKYYKGYAVGAQPRPSANREDFSPERLLPLNIRNSPFTRGRREDYAAGQSHRNRNLGGNYPEKL
notes: also called GST-P2P (484-688)
B3: GST-P2P (918-1095) fusion protein (other, not shown: a dimerising Fc or GST)
chain: RPRSLRKINYLIAREKNEREKRKKSVDKDFESSSMKISKVEGTEIVKPSPKRKMEGDVEKLERTPEKDKIASSTTPAKKIKLNRETGKKIGNAENASTTKEPSEKLESTSSKIKQEKVKGKAKRKVAGSEGSSSTLVDYTSTSSTGGSPVRKSEEKTDTKRTVIKTMEEYNNDNTAPA

This assay addresses T1, Rb1 tumor suppressor protein. As to the kind of experiment: GST pull-down from K562 lysate, Western blot with anti-Rb1. The text has this:
As precipitation controls, aliquots of the K562 lysate were immunoprecipitated with anti-Rb1 antibody IF8 or normal rabbit sera. Bound proteins were separated by electrophoresis in a 7% SDS-polyacrylamide gel and transferred to a nitrocellulose membrane. An aliquot of the K-562 crude lysate was included as a positive control for Western analysis. Proteins were visualized by probing the blot with anti-Rb1 antibodies IF-8 or C15. […] Bound proteins were separated by electrophoresis in a 7% SDS-polyacrylamide gel and transferred to a nitrocellulose membrane. Proteins were visualized by probing the blot with anti-Rb1 antibodies IF8 or C15.
Glutathione S-transferase (GST)-P2P fusion proteins were expressed and recovered on glutathione-sepharose beads as described above. Whole-cell lysates of K562 cells (1 ×10^7 cells/sample) were rocked with the beads for 1 hour at 4° C. and then washed five times with NETN buffer. The beads were then boiled in 1× SDS loading buffer and the proteins separated on SDS-polyacrylamide gels and transferred to nitrocellulose membranes. Competition experiments were performed by adding an excess of the 6X-His E1a fusion protein to the cellular lysates prior to the addition of the GST-P2P fusion proteins. The Rb1 protein was visualized by immunoblotting using anti-Rb1 antibodies IF8 or C15 (Santa Cruz Biotechnology, Santa Cruz, Calif.). These antibodies were also used to immunoprecipitate native Rb1 from the cellular lysates to serve as a positive control following the manufacturers' protocol.
In general terms: Immunoblotting shows a protein as a band on a membrane.
On to B1, for which the binding result is recorded as “no binding”. With B2 the entry was “no binding”; with B3, “no binding”.
